Reference: patent US20260152559A1 (Janssen / Centocor, published 2026)

Legend:
[1] = target: human CD3 on cells (Jurkat cells, primary human T cells) (human) (UniProt P07766); experiment: flow cytometry, 10 nM antibody on Jurkat cells; no-antibody background 2075.61
[2] = target: hK2 on target cells (VCaP, LNCaP/hK2 and other hK2 positive tumor cells) (human, UniProt P20151 19-261); experiment: cell-based or functional assay
[3] = target: T1, kallikrein related peptidase 2 (hK2), soluble (human, UniProt P20151 19-261, biotin label in the CAR staining assays (site not stated)); experiment: flow cytometry, primary human T cells transduced with the CAR lentivirus (MOI 3), biotinylated hK2 (1 ug/ml) then streptavidin-PE, 14 days after transduction; UTD gate 0.086 [contd]
T1 construct: also called KLK2; human KLK2 protein
T1 sequence (P20151 19-261): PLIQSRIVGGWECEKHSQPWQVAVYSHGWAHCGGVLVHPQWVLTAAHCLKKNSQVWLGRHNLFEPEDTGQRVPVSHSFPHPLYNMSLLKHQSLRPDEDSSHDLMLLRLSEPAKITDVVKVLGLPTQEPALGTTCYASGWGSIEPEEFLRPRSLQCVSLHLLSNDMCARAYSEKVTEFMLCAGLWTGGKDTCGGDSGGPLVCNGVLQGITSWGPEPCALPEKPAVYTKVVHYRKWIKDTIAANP

[4] = target: T1, kallikrein related peptidase 2 (hK2), …; experiment: SPR; bispecific antibody captured on anti-Fc sensor chip, soluble hK2 injected; 1:1 Langmuir fit

Chain of hK2 on target cells (VCaP, LNCaP/hK2 and other hK2 positive tumor cells) (P20151 19-261): as above
Chain of human CD3 on cells (Jurkat cells, primary human T cells) (human) (P07766 23-207 limits assumed): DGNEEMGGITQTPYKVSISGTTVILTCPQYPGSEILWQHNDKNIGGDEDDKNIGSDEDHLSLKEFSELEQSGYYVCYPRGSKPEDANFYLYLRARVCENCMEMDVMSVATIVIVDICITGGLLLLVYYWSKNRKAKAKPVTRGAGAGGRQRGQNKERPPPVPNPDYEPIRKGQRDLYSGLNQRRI

Molecule	tumor cell growth inhibition (TGI) of VCaP cells, IncuCyte killing assay, 96 hours, E:T 1:1 or 0.5:1 [2] [%]	Kd [4] [nM]	other results
UCHT1 (antibody)	–	–	MFI (mean fluorescence index) (arbitrary units) [1]: 89200
CAR17 (KL2B413_HL) (other) EVQLVESGGGLVQPGGSLRLSCAASGFTFSSYWMTWVRQAPGKGLEWVANIKQDGSERYYVDSVKGRFTISRDNAKNSLYLQMNSLRAEDTAVYYCARDQNYDILTGHYGMDVWGQGTTVTVSSGGSEGKSSGSGSESKSTGGSEIVLTQSPSFLSASVGDRVTITCRASQGISSYLSWYQQKPGKAPKLLIYATSTLQSGVPSRFSGSGSGTEFTLTISSLQPEDFATYYCQQLNSYPRTFGQGTKVEIKTSTPAPRPPTPAPTIASQPLSLRPEACRPAAGGAVHTRGLDFACDIYIWAPLAGTCGVLLLSLVITLYCKRGRKKLLYIFKQPFMRPVQTTQEEDGCSCRFPEEEEGGCELRVKFSRSADAPAYKQGQNQLYNELNLGRREEYDVLDKRRGRDPEMGGKPRRKNPQEGLYNELQKDKMAEAYSEIGMKGERRRGKGHDGLYQGLSTATKDTYDALHMQALPPR	~100	–	–
CAR19 (KL2B359_HL) (other) QVQLQESGPGLVKPSQTLSLTCTVSGNSITSDYAWNWIRQFPGKRLEWIGYISYSGSTTYNPSLKSRVTISRDTSKNQFSLKLSSVTAADTAVYYCATGYYYGSGFWGQGTLVTVSSGGSEGKSSGSGSESKSTGGSEIVLTQSPATLSLSPGERATLSCRASESVEYFGTSLMHWYQQKPGQPPRLLIYAASNVESGIPARFSGSGSGTDFTLTISSVEPEDFAVYFCQQTRKVPYTFGGGTKVEIKTSTPAPRPPTPAPTIASQPLSLRPEACRPAAGGAVHTRGLDFACDIYIWAPLAGTCGVLLLSLVITLYCKRGRKKLLYIFKQPFMRPVQTTQEEDGCSCRFPEEEEGGCELRVKFSRSADAPAYKQGQNQLYNELNLGRREEYDVLDKRRGRDPEMGGKPRRKNPQEGLYNELQKDKMAEAYSEIGMKGERRRGKGHDGLYQGLSTATKDTYDALHMQALPPR	~100	–	–
CAR20 (KL2B359_LH) (other) EIVLTQSPATLSLSPGERATLSCRASESVEYFGTSLMHWYQQKPGQPPRLLIYAASNVESGIPARFSGSGSGTDFTLTISSVEPEDFAVYFCQQTRKVPYTFGGGTKVEIKGGSEGKSSGSGSESKSTGGSQVQLQESGPGLVKPSQTLSLTCTVSGNSITSDYAWNWIRQFPGKRLEWIGYISYSGSTTYNPSLKSRVTISRDTSKNQFSLKLSSVTAADTAVYYCATGYYYGSGFWGQGTLVTVSSTSTPAPRPPTPAPTIASQPLSLRPEACRPAAGGAVHTRGLDFACDIYIWAPLAGTCGVLLLSLVITLYCKRGRKKLLYIFKQPFMRPVQTTQEEDGCSCRFPEEEEGGCELRVKFSRSADAPAYKQGQNQLYNELNLGRREEYDVLDKRRGRDPEMGGKPRRKNPQEGLYNELQKDKMAEAYSEIGMKGERRRGKGHDGLYQGLSTATKDTYDALHMQALPPR	~100	–	–
CAR8 (LH_LCB7_HCF3_20AA) (other, Chimeric antigen receptor on JNL cells or primary human T cells; also called hK2 CAR; pDR000083443) DIVLTQSPDSLAVSLGERATINCKASESVEYFGTSLMHWYQQKPGQPPKLLIYAASNRESGVPDRFSGSGSGTDFTLTISSVQAEDVAVYYCQQTRKVPYTFGQGTKLEIKGGSEGKSSGSGSESKSTGGSQVQLQESGPGLVKPSDTLSLTCAVSGNSITSDYAWNWIRQFPGKGLEWIGYISYSGSTTYNPSLKSRVTISRDTSKNQFSLKLSSVTPVDTAVYYCATGYYYGSGFWGQGTLVTVSSTSTPAPRPPTPAPTIASQPLSLRPEACRPAAGGAVHTRGLDFACDIYIWAPLAGTCGVLLLSLVITLYCKRGRKKLLYIFKQPFMRPVQTTQEEDGCSCRFPEEEEGGCELRVKFSRSADAPAYKQGQNQLYNELNLGRREEYDVLDKRRGRDPEMGGKPRRKNPQEGLYNELQKDKMAEAYSEIGMKGERRRGKGHDGLYQGLSTATKDTYDALHMQALPPR	–	–	% of cells in the hK2CAR+ CD3+ gate [3]: 21.5%
CAR9 (LH_LCB7_HCG5_20AA) (other, Chimeric antigen receptor on JNL cells or primary human T cells; also called hK2 CAR; pDR000083444) DIVLTQSPDSLAVSLGERATINCKASESVEYFGTSLMHWYQQKPGQPPKLLIYAASNRESGVPDRFSGSGSGTDFTLTISSVQAEDVAVYYCQQTRKVPYTFGQGTKLEIKGGSEGKSSGSGSESKSTGGSQVQLQESGPGLVKPSDTLSLTCAVSGNSITSDYAWNWIRQFPGKGLEWMGYISYSGSTTYNPSLKSRVTISRDTSKNQFSLKLSSVTPVDTAVYYCATGYYYGSGFWGQGTLVTVSSTSTPAPRPPTPAPTIASQPLSLRPEACRPAAGGAVHTRGLDFACDIYIWAPLAGTCGVLLLSLVITLYCKRGRKKLLYIFKQPFMRPVQTTQEEDGCSCRFPEEEEGGCELRVKFSRSADAPAYKQGQNQLYNELNLGRREEYDVLDKRRGRDPEMGGKPRRKNPQEGLYNELQKDKMAEAYSEIGMKGERRRGKGHDGLYQGLSTATKDTYDALHMQALPPR	–	–	% of cells in the hK2CAR+ CD3+ gate [3]: 30.6%
KL2B467 Fab (binding arm listed in Table 39 for hK2/CD3 bispecific antibodies) (bispecific antibody, V domains shown) VH: QVQLVESGGGVVQPGRSLRLSCAASGFTFSYYGMHWVRQAPGKGLEWVAFISYDGSNKYYADSVKGRFTISRDNSKNTLYLQMNSLRAEDTAVYYCAHLPYSGSYWAFDYWGQGTQVTVSS VL: QSVLTQPPSVSVAPGQTASITCGGDNIGSKSVHWYQQKPGQAPVLVVYDNSDRPSGIPERFSGSNSGTTATLTISRVEAGDEADYYCQVWDSSSDHPVVFGGGTKVTV	–	0.09	–
KL2B494 Fab (binding arm listed in Table 39 for hK2/CD3 bispecific antibodies) (bispecific antibody, V domains shown) VH: QVQLVESGGGLVQPGGSLRLSCAASGFTFSHYAMSWVRQAPGKGLEWVSTIGGSGGSTYYADSVKGRFTISRDNSKNTLYLQMNSLRAEDTAVYYCAKPHIVMVTALLYDGMDVWGQGTMVTVSS VL: SSELTQPPSVSVAPGQTARITCGGNNIGSKSVHWYQQKPGQAPVLVVYDDSDRPSGIPERFSGSNSGNTATLTISRVEAGDEADYYCQVWDSSSDHVVFGGGTKLTVL	–	0.06	–
KL2B30 Fab arm of an hK2/CD3 bispecific antibody (Table 39) (bispecific antibody) chain 1: QVQLQESGPGLVKPSETLSLTCTVSGGSISSYYWSWIRQPPGKGLEWIGYIYYSGSTNYNPSLKSRVTISVDTSKNQFSLKLSSVTAADTAVYYCAGTTIFGVVTPNFYYGMDVWGQGTTVTVSSASTKGPSVFPLAPSSKSTSGGTAALGCLVKDYFPEPVTVSWNSGALTSGVHTFPAVLQSSGLYSLSSVVTVPSSSLGTQTYICNVNHKPSNTKVDKKVEPKSCDKTHTCPPCPAPEAAGGPSVFLFPPKPKDTLMISRTPEVTCVVVSVSHEDPEVKFNWYVDGVEVHNAKTKPREEQYNSTYRVVSVLTVLHQDWLNGKEYKCKVSNKALPAPIEKTISKAKGQPREPQVYVLPPSREEMTKNQVSLLCLVKGFYPSDIAVEWESNGQPENNYLTWPPVLDSDGSFFLYSKLTVDKSRWQQGNVFSCSVMHEALHNHYTQKSLSLSPG chain 2: DIQMTQSPSFLSASVGDRVTITCRASQGISSYLAWYQQKPGKAPKFLIYAASTLQSGVPSRFSGSGSGTEFTLTISSLQPEDFATYYCQQLNSYPLTFGGGTKVEIKRTVAAPSVFIFPPSDEQLKSGTASVVCLLNNFYPREAKVQWKVDNALQSGNSQESVTEQDSKDSTYSLSSTLTLSKADYEKHKVYACEVTHQGLSSPVTKSFNRGEC chain 3: DIQMTQSPSSLSASVGDRVTITCRARQSIGTAIHWYQQKPGKAPKLLIKYASESISGVPSRFSGSGSGTDFTLTISSLQPEDFATYYCQQSGSWPYTFGQGTKLEIKGGSEGKSSGSGSESKSTGGSEVQLVESGGGLVKPGGSLRLSCAASGFTFSRYNMNWVRQAPGKGLEWVSSISTSSNYIYYADSVKGRFTFSRDNAKNSLDLQMSGLRAEDTAIYYCTRGWGPFDYWGQGTLVTVSSEPKSSDKTHTCPPCPAPEAAGGPSVFLFPPKPKDTLMISRTPEVTCVVVSVSHEDPEVKFNWYVDGVEVHNAKTKPREEQYNSTYRVVSVLTVLHQDWLNGKEYKCKVSNKALPAPIEKTISKAKGQPREPQVYVYPPSREEMTKNQVSLTCLVKGFYPSDIAVEWESNGQPENNYKTTPPVLDSDGSFALVSKLTVDKSRWQQGNVFSCSVMHEALHNHYTQKSLSLSPG	–	2	–
KL2B53 Fab arm of an hK2/CD3 bispecific antibody (Table 39) (bispecific antibody) chain 1: EVQLVESGGGVVQPGRSLRLSCVASGFTFSSYDIHWVRQAPGKGLEWVAIISYDGSKKDYTDSVKGRFTISRDNSKNTLYLQMDSLRVEDSAVYSCARESGWSHYYYYGMDVWGQGTMVTVSSASTKGPSVFPLAPSSKSTSGGTAALGCLVKDYFPEPVTVSWNSGALTSGVHTFPAVLQSSGLYSLSSVVTVPSSSLGTQTYICNVNHKPSNTKVDKKVEPKSCDKTHTCPPCPAPEAAGGPSVFLFPPKPKDTLMISRTPEVTCVVVSVSHEDPEVKFNWYVDGVEVHNAKTKPREEQYNSTYRVVSVLTVLHQDWLNGKEYKCKVSNKALPAPIEKTISKAKGQPREPQVYVLPPSREEMTKNQVSLLCLVKGFYPSDIAVEWESNGQPENNYLTWPPVLDSDGSFFLYSKLTVDKSRWQQGNVFSCSVMHEALHNHYTQKSLSLSPG chain 2: DIVMTQSPSSLSASVGDRVTITCRASQDISNYLAWYQQKPGKVPKFLIYAASTLHSGVPSRFSGSGSGTDFTLTISSLQPEDVATYYCQKYNSAPYTFGQGTRLEIKRTVAAPSVFIFPPSDEQLKSGTASVVCLLNNFYPREAKVQWKVDNALQSGNSQESVTEQDSKDSTYSLSSTLTLSKADYEKHKVYACEVTHQGLSSPVTKSFNRGEC chain 3: DIQMTQSPSSLSASVGDRVTITCRARQSIGTAIHWYQQKPGKAPKLLIKYASESISGVPSRFSGSGSGTDFTLTISSLQPEDFATYYCQQSGSWPYTFGQGTKLEIKGGSEGKSSGSGSESKSTGGSEVQLVESGGGLVKPGGSLRLSCAASGFTFSRYNMNWVRQAPGKGLEWVSSISTSSNYIYYADSVKGRFTFSRDNAKNSLDLQMSGLRAEDTAIYYCTRGWGPFDYWGQGTLVTVSSEPKSSDKTHTCPPCPAPEAAGGPSVFLFPPKPKDTLMISRTPEVTCVVVSVSHEDPEVKFNWYVDGVEVHNAKTKPREEQYNSTYRVVSVLTVLHQDWLNGKEYKCKVSNKALPAPIEKTISKAKGQPREPQVYVYPPSREEMTKNQVSLTCLVKGFYPSDIAVEWESNGQPENNYKTTPPVLDSDGSFALVSKLTVDKSRWQQGNVFSCSVMHEALHNHYTQKSLSLSPG	–	0.1	–
